In the experiment the target is α-conotoxin ImII (Conus imperialis). Nature of the experiment: cryo-EM structure.

For orientation: stoichiometry N means the number of molecules, sites or subunits per partner or assembly. In turn, α-conotoxin ImII (peptide) had a stoichiometry N of 2.

The values above are taken from article doi:10.1101/2025.04.23.650119.
